Laboratory results from the supplement of paper PMC9170038.

Tests used:
MS2 coat protein [1] = test: apparent KD of MS2 coat protein, switch OFF state (with FMN for OFF switches, without FMN for ON switches); designed switch direction (-1 OFF switch, 1 ON switch): -1; higher = weaker reporter binding; conditions: FMN input: 0 or 200 uM; Eterna round: R93 (includes R88 designs)
Procedure, shortened: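 Designed RNA switches, transcribed on-chip from Illumina sequencing clusters, were titrated with SNAP-549-labelled MS2 coat protein from 0.7 or 1.5 nM to 3 µM in twofold steps. The solution was 100 mM Tris-HCl pH 7.5, 80 mM KCl, 4 mM MgCl2, with constant ligand or without it. Apparent KD is the median over each design's normalised cluster binding-curve fits.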

MS2 coat protein [2] = test: apparent KD of MS2 coat protein; designed switch direction (-1 OFF switch, 1 ON switch): 1; higher = weaker reporter binding
Procedure, shortened: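 Designed RNA switches were transcribed on Illumina chips by stalled E. coli RNA polymerase and titrated with SNAP-549-labelled MS2 coat protein from 0.7 or 1.5 nM, doubling to 3 µM. Step length ran from 0.8–1.5 h at the lowest concentration to 10–20 min at the highest. The apparent KD is the median over clusters for each design, from curve-fitted normalised cluster fluorescence.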

[3] = input ligand: microRNA oligo, concentration not stated
[4] = Eterna round: R95, input ligand: FMN 200 uM
[5] = Eterna round: R95, input ligand: microRNA oligo, concentration not stated
[6] = Eterna round: R95, input ligand: none

| Sequence | apparent KD of MS2 coat protein (MS2 coat protein [1]) | apparent KD of MS2 coat protein (MS2 coat protein [2]; input ligand: FMN 200 uM) | apparent KD of MS2 coat protein (MS2 coat protein [2]; [3]) | apparent KD of MS2 coat protein (MS2 coat protein [2]; input ligand: none) | apparent KD of MS2 coat protein (MS2 coat protein [2]; [4]) | apparent KD of MS2 coat protein (MS2 coat protein [2]; [5]) | apparent KD of MS2 coat protein (MS2 coat protein [2]; [6]) |
| --- | --- | --- | --- | --- | --- | --- | --- |
| AGAACGUCAGGAUAUCCAACAACAAGUAAAUAGAGAAGAAGGGAGAAGGGACAUGAGGAUCACCCAUGUAAGAA [e4-2] | 0.0299 µM |  |  |  |  |  |  |
| UGUUGUAUUACAGGAUAUCUAUUGUUUUUAGUUAGAGAAGGGUAUUCACAUGAGGAUCACCCAUGUAUAUACGAGGAAGUUGUG [JMF's solution 82] (Eterna round: R96, puzzle: Same State NG 1) |  | 0.0599 µM | 0.0346 µM | 0.0499 µM |  |  |  |
| UGUUGUUAAUUAGGAUAUGGGCACAUGAGGAUCACCCAUGUAUUGUCGAUGCUAUGUGGACACGUUUAGAAGGAAUGGCUAACA [SameState NG2 #91] (Eterna round: R96, puzzle: Same State NG 2) |  | 0.0644 µM | 0.0554 µM | 0.0648 µM |  |  |  |
| UUAACAUGAGGAUCACCCAUGUAUAGGGAGUUAGCAAUUUGACAGGAUAUUGAAGAUGUAGAUAGCAAGAAGGGUCGGUAGUCU [JR_SSNG3_Sub003] (Eterna round: R96, puzzle: Same State NG 3) |  | 0.0399 µM | 0.0413 µM | 0.0459 µM |  |  |  |
| UUAAGCCACGGGCAGGAUAUGUAUUAAAAUACAUGAGGAUCACCCAUGUGCAGGUGUAACACCUGACAGAAGGGCCAAUCGAGGC [Soteed - 6] (puzzle: Same State 2) |  |  |  |  | 0.0366 µM | 0.182 µM | 0.284 µM |
| UUAAUAAUGAUAGGAUAUACAUGAGGAAUUCUCGUAGAAGGAUCAUGACAUGAGGAUCACCCAUGUAUCGCUCGAUAGAGCGUA [Mat - Same State NG 1 - JL mod - D35] (Eterna round: R96, puzzle: Same State NG 1) |  | 0.447 µM | 0.149 µM | 0.326 µM |  |  |  |
| UUAAUGAAGUAAGGAUAUACAUGAGGAUUUCUCGUAGAAGGUACUAUACAUGAGGAUCACCCAUGUGCCGGUCCGUAGACUGGA [JL SSNG1 1.05] (Eterna round: R96, puzzle: Same State NG 1) |  | 0.342 µM | 0.297 µM | 0.607 µM |  |  |  |
| UUAAUGAUGAUAGGAUAUACAUGAGGAAUUCUCGUAGAAGGAUCAUGACAUGAGGAUCACCCAUGUAUCGCUCGAAAGAGCGUA [Mat - Same State NG 1 - JL mod - D33] (Eterna round: R96, puzzle: Same State NG 1) |  | 0.57 µM | 0.234 µM | 0.205 µM |  |  |  |
| UUAAUUAUGUAAGGAUAUACAUGAGGAUUUCUCGUAGAAGGUACAUUACAUGAGGAUCACCCAUGUAGGUGUCCGUAGACGCCA [JL SSNG1 1.07] (Eterna round: R96, puzzle: Same State NG 1) |  | 0.142 µM | 0.0783 µM | 0.129 µM |  |  |  |
| UUAAUUUACUGAGGAUAUCGUGUCGACUGAGGUGACAUGAGGAUCACCCAUGUGAGAAGAGGUAUCGAGAAGGCAGUAUUCAUA [JR_SSNG2_Sub021] (Eterna round: R96, puzzle: Same State NG 2) |  | 0.317 µM | 0.545 µM | 1.12 µM |  |  |  |
| UUACUCAUGUAAGGAUAUGCAGCCGAAACGGCUGCAGAAGGUACUAUAAUACAUGAGGAUCACCCAUGUCAAAAUAAUUUUUAC [Mat - Same State NG 1 - JL mod - D71] (Eterna round: R96, puzzle: Same State NG 1) |  | 0.0449 µM | 0.0217 µM | 0.0275 µM |  |  |  |
| UUACUCAUGUAAGGAUAUGCAGCCGUUUCGGCUGCAGAAGGUACUAUAAUACAUGAGGAUCACCCAUGUCUCUAUUAUUUAGUU [JL SSNG1 1.43] (Eterna round: R96, puzzle: Same State NG 1) |  | 0.151 µM | 0.0396 µM | 0.0527 µM |  |  |  |
| UUAUAACAUGAGGAUCACCCAUGUCAACAAAGUCGAGGAUAUGGGCAUAGAUUAUAAGAACCAGAAGGCGAAUAUG [Mat - Same State 1 - Mod of UCT - D41] (puzzle: Same State 1) |  |  |  |  | 0.14 µM | 0.0113 µM | 0.00169 µM |
| UUAUUCUAUAUAGGAUAUUGAUGCAAUUUACCUCAAGAAGGAUAUACAUGAGGAUCACCCAUGUUGGAUAGGGUUAGUUUGUUU [JR_SSNG1_Sub081] (Eterna round: R96, puzzle: Same State NG 1) |  |  | 0.056 µM |  |  |  |  |
| UUCCCAUCGGGAGGAUAUGGUGCCUUAUUGGUGCUAGAAGGUCCAACAUGAGGAUCACCCAUGUGGGAGUGGUCUAAUGACCUC [SS NG10LRO06] (Eterna round: R96, puzzle: Same State NG 1) |  | 0.338 µM | 0.204 µM | 0.355 µM |  |  |  |
| UUGAAGAAUUAAGGAUAUUGAAUACAUAUGUUUAACAUGAGGAUCACCCAUGUGGGUUGCGGUGUCGAGAAGGUAAAUUACUAG [JL SSNG2 1.50] (Eterna round: R96, puzzle: Same State NG 2) |  | 0.256 µM | 0.177 µM | 0.207 µM |  |  |  |
| UUGAUUAACGUAGGAUAUCGACCUACAUGAGGAUCACCCAUGUCUUUGUAUAGUUUUUUUUGUUACGAGAAGGACGUUAUGUAU [JR_SSNG2_Sub067] (Eterna round: R96, puzzle: Same State NG 2) |  | 0.0786 µM | 0.1 µM | 0.106 µM |  |  |  |
| UUGGUUCUCGUAGGAUAUGUAGGAUAUGCCUACAUGAGGAUCACCCAUGUUCGCAUGGCAGAAGGACAGAAGGACGAUCACCAU [pwkr ssNG2 2FMN + 1F5.17] (Eterna round: R96, puzzle: Same State NG 2) |  |  | 0.136 µM |  |  |  |  |
| UUGGUUGUCGUAGGAUAUGUAGGAUAUUCCUACAUGAGGAUCACCCAUGUUCGCAUGGAAGAAGGACAGAAGGACGAUGACCAU [pwkr ssNG2 2FMN + 1F5.20] (Eterna round: R96, puzzle: Same State NG 2) |  | 0.0168 µM | 0.904 µM | 0.836 µM |  |  |  |
| UUUACAUUACGAGGAUAUCAUUUAUUUCAUGUUUGAGAAGGCGUUUUUUUUAUUACCUUACAUGAGGAUCACCCAUGUUUCUUU [JR_SSNG1_Sub043] (Eterna round: R96, puzzle: Same State NG 1) |  |  | 0.0262 µM |  |  |  |  |
| UUUAGAUCGCGAGGAUAUCGCGAGGAUCACCCGUGAGAAGGCGCAGAGCCGAGGAUCACCCGGCUGAUCCUGAGAAGGAGGUCU (Eterna round: R96, puzzle: Same State NG 1) |  | 0.0451 µM | 0.0877 µM | 0.129 µM |  |  |  |
| UUUAGUUGCGGGCAGGAUAUGUAUUAAAAUACAUGAGGAUCACCCAUGUGCGGGUGUAACACCCGACAGAAGGGCCAAUCGCGAC [Laonerce - 13] (puzzle: Same State 2) |  |  |  |  |  | 0.22 µM |  |
| UUUAUUAAUAUAGGAUAUGUAAAACAUGAGGAUCACCCAUGUGAUAUCGUGAGUAAGGAGAGAGAACAGAAGGAUAAUUUUUUU [JMF's solution 2] (Eterna round: R96, puzzle: Same State NG 2) |  | 0.0397 µM | 0.0351 µM | 0.0325 µM |  |  |  |
| UUUCGAUAGAUAGGAUAUCACUUUACAUGAGGAUCACCCAUGUUGGCUGUGCUGAUUAUUAAAACUGAGAAGGAUCUUGAUGAC [JR_SSNG2_Sub003] (Eterna round: R96, puzzle: Same State NG 2) |  | 0.0252 µM | 0.022 µM | 0.0235 µM |  |  |  |
| UUUGAAUUGCAAGGAUAUCUUAUUUAGAUUUUAAGAGAAGGUGCUUUACAGUUACAUGAGGAUCACCCAUGUCUUUCUUUUUAU [JR_SSNG1_Sub063] (Eterna round: R96, puzzle: Same State NG 1) |  |  | 0.0193 µM |  |  |  |  |
| UUUUUUAUCGUAGGAUAUAGGUUGAAUAAUAGACUAGAAGGACGUCACAUGAGGAUCACCCAUGUUUUUUAAGUGUCGAAGUGU [JR_SSNG1_Sub040] (Eterna round: R96, puzzle: Same State NG 1) |  | 0.0313 µM | 0.023 µM | 0.0294 µM |  |  |  |
| UUUUUUUUGACGAGACAAGCUUUUUGAUCACAUGAGGAUCACCCAUGUCUCGUCUUAUUUUUUUUUUUUUUUUUUUU [BA Sensor hsa-mir-208a - 2 - 2] (puzzle: Sensor for hsa-mir-208a) |  |  |  |  | 0.0174 µM | 0.00964 µM | 0.00754 µM |
